According to the RNAGym collection of RNA variant scans (doi:10.7554/elife.80360):

B1: Hairpin Ribozyme (parent)
chain: GUCCUCUUUCACGUGCGCGUGAAAGAGAGAAGUGAACCAGAGAAACACACGUUGUGGUAUAUUACCUGGUA

Variants of: B1
Assay: self-cleavage, relative activity (ratio to wild type); higher = more cleavage; co-transcriptional

Row | Variant | self-cleavage
1 | G68A G69U | 0.172
2 | G69U A71G | 0.438
3 | G69U A71U | 0.362
4 | G69U A71C | 1.38
5 | U67A G69C | 0.258
6 | A64C A71U | 0.243
7 | C65U U70A | 0.379
8 | G68A A71C | 0.348
9 | C65G U67A | 0.0982
10 | C65U A71C | 0.774
11 | C65U A71G | 0.467
12 | C65A C66U | 0.508
13 | C65A G69U | 0.235
14 | C65A G69C | 0.224
15 | C66A A71G | 0.196
16 | U70C A71G | 1.85
17 | C66U G68C | 0.202
18 | C66G A71U | 0.168
19 | C66G A71C | 0.35
20 | C66G A71G | 0.16
21 | C65A U67A | 0.141
22 | C65A U67C | 0.228
23 | C66U U70G | 0.297

Row | Variant | self-cleavage
24 | C66U U67G | 0.0789
25 | A64C G69A | 0.251
26 | A64C G69U | 0.234
27 | U63C A71C | 0.578
28 | C65G G68A | 0.254
29 | C65G G68U | 0.102
30 | C65A U70C | 0.692
31 | C65A U70G | 0.562
32 | A64U G69U | 0.281
33 | C66G G69A | 0.185
34 | G69U U70G | 0.299
35 | U63G C65A | 0.0995
36 | U63G C65G | 0.243
37 | C66A U70A | 0.279
38 | U63C C65G | 0.117
39 | U63G G68U | 0.225
40 | U63G G68A | 0.281
41 | G68U U70G | 0.252
42 | U67G G68U | 0.192
43 | A64G C66A | 0.211
44 | A64G C66U | 0.109
45 | A64U C65U | 0.194
46 | A64U C65A | 0.187

Row | Variant | self-cleavage
47 | U63C C66U | 0.165
48 | U63C C66G | 0.244
49 | C65G G69U | 0.156
50 | C65G G69C | 0.219
51 | A64U C66U | 0.11
52 | C65U | 0.323
53 | C65G | 0.273
54 | C65A | 0.989
55 | U67C G69U | 0.147
56 | U67C G68A | 0.231
57 | U67C G68U | 0.208
58 | G68C A71U | 0.126
59 | A64C U67A | 0.0615
60 | U67A A71G | 0.196
61 | U67A A71U | 0.194
62 | G68U A71U | 0.234
63 | U63G U67G | 0.134
64 | C66A | 0.218
65 | C66G | 0.181
66 | C66U | 0.527
67 | U63G A71C | 0.565
68 | U63G A71G | 0.226
69 | A64U A71C | 0.494

Row | Variant | self-cleavage
70 | G68C G69U | 0.17
71 | U63G G69U | 0.169
72 | U63G G69A | 0.102
73 | U70G A71U | 1.26
74 | U70G A71C | 1.74
75 | C65A A71G | 0.93
76 | C65A A71U | 0.7
77 | A64G G69A | 0.121
78 | A64G G69C | 0.142
79 | C65U C66G | 0.248
80 | C65U G69C | 0.0941
81 | C65U G69A | 0.193
82 | U67G A71U | 0.918
83 | G69C U70C | 0.685
84 | G69C U70A | 0.437
85 | C66G U67A | 0.17
86 | U63C A64G | 0.0805
87 | U63C U67A | 0.21
88 | U63C U67G | 0.111
89 | U63C U67C | 0.148
90 | C66G G68A | 0.123
91 | U63G C66G | 0.125
92 | C66A U67A | 0.234

Row | Variant | self-cleavage
93 | C65G C66A | 0.142
94 | G68C U70A | 0.143
95 | C65A G68U | 0.292
96 | C65A G68C | 0.224
97 | A64C U70A | 0.4
98 | A64U U70C | 0.0932
99 | U63C U70C | 0.19
100 | A64U U67C | 0.213
101 | U63C G68U | 0.351
102 | C65G U70A | 0.197
103 | U67C U70G | 0.269
104 | U67C U70A | 0.229
105 | U67C U70C | 0.279
106 | A64G C65U | 0.215
107 | A64G C65G | 0.101
108 | A64G C65A | 0.139
109 | U63G U70A | 0.0931
110 | A64G U70C | 0.61
111 | G69A A71G | 0.358
112 | A64U G68U | 0.23
